Reference: patent publication US20220119448A1 (ZHEJIANG DOER BIOLOGICS, published 2022)

B1: GLP2G-PU69x45 (ligand)
chain: HGDGSFSDEMNTILDNLAARDFINWLIQTKITDAPPEAPEAPEAAPAAPEPAEAPPEAPEAPEAAPAAPEPAEAPPEAPEAPEAAPAAPEPAEAPPEAPEAPEAAPAAPEPAEAPPEAPEAPEAAPAAPEPAEAPPEAPEAPEAAPAAPEPAEAPPEAPEAPEAAPAAPEPAEAPPEAPEAPEAAPAAPEPAEAPPEAPEAPEAAPAAPEPAEAPPEAPEAPEAAPAAPEPAEAPPEAPEAPEAAPAAPEPAEAPPEAPEAPEAAPAAPEPAEAPPEAPEAPEAAPAAPEPAEAPPEAPEAPEAAPAAPEPAEAPPEAPEAPEAAPAAPEPAEAPPEAPEAPEAAPAAPEPAEAPPEAPEAPEAAPAAPEPAEAPPEAPEAPEAAPAAPEPAEAPPEAPEAPEAAPAAPEPAEAPPEAPEAPEAAPAAPEPAEAPPEAPEAPEAAPAAPEPAEAPPEAPEAPEAAPAAPEPAEAPPEAPEAPEAAPAAPEPAEAPPEAPEAPEAAPAAPEPAEAPPEAPEAPEAAPAAPEPAEAPPEAPEAPEAAPAAPEPAEAPPEAPEAPEAAPAAPEPAEAPPEAPEAPEAAPAAPEPAEAPPEAPEAPEAAPAAPEPAEAPPEAPEAPEAAPAAPEPAEAPPEAPEAPEAAPAAPEPAEAPPEAPEAPEAAPAAPEPAEAPPEAPEAPEAAPAAPEPAEAPPEAPEAPEAAPAAPEPAEAPPEAPEAPEAAPAAPEPAEAPPEAPEAPEAAPAAPEPAEAPPEAPEAPEAAPAAPEPAEAPPEAPEAPEAAPAAPEPAEAPPEAPEAPEAAPAAPEPAEAPPEAPEAPEAAPAAPEPAEAPPEAPEAPEAAPAAPEPAEAPPEAPEAPEAAPAAPEPAEAPPEAPEAPEAAPAAPEPAEAPPEAPEAPEAAPAAPEPAEAPPEAPEAPEAAPAAPEPAE
B2: GLP2G-PU98x43 (ligand)
chain: HGDGSFSDEMNTILDNLAARDFINWLIQTKITDAEPAAPAPAEPAAPAPEAPAAEPAAPAPAEPAAPAPEAPAAEPAAPAPAEPAAPAPEAPAAEPAAPAPAEPAAPAPEAPAAEPAAPAPAEPAAPAPEAPAAEPAAPAPAEPAAPAPEAPAAEPAAPAPAEPAAPAPEAPAAEPAAPAPAEPAAPAPEAPAAEPAAPAPAEPAAPAPEAPAAEPAAPAPAEPAAPAPEAPAAEPAAPAPAEPAAPAPEAPAAEPAAPAPAEPAAPAPEAPAAEPAAPAPAEPAAPAPEAPAAEPAAPAPAEPAAPAPEAPAAEPAAPAPAEPAAPAPEAPAAEPAAPAPAEPAAPAPEAPAAEPAAPAPAEPAAPAPEAPAAEPAAPAPAEPAAPAPEAPAAEPAAPAPAEPAAPAPEAPAAEPAAPAPAEPAAPAPEAPAAEPAAPAPAEPAAPAPEAPAAEPAAPAPAEPAAPAPEAPAAEPAAPAPAEPAAPAPEAPAAEPAAPAPAEPAAPAPEAPAAEPAAPAPAEPAAPAPEAPAAEPAAPAPAEPAAPAPEAPAAEPAAPAPAEPAAPAPEAPAAEPAAPAPAEPAAPAPEAPAAEPAAPAPAEPAAPAPEAPAAEPAAPAPAEPAAPAPEAPAAEPAAPAPAEPAAPAPEAPAAEPAAPAPAEPAAPAPEAPAAEPAAPAPAEPAAPAPEAPAAEPAAPAPAEPAAPAPEAPAAEPAAPAPAEPAAPAPEAPAAEPAAPAPAEPAAPAPEAPAAEPAAPAPAEPAAPAPEAPAAEPAAPAPAEPAAPAPEAPAAEPAAPAPAEPAAPAPEAPAAEPAAPAPAEPAAPAPEAPAAEPAAPAPAEPAAPAPEAPAAEPAAPAPAEPAAPAPEAPAAEPAAPAPAEPAAPAPEAPA
B3: GLP2G-PU141x47 (ligand)
chain: HGDGSFSDEMNTILDNLAARDFINWLIQTKITDAPAAPPEEAAAEPPAAEAAPAPAAPPEEAAAEPPAAEAAPAPAAPPEEAAAEPPAAEAAPAPAAPPEEAAAEPPAAEAAPAPAAPPEEAAAEPPAAEAAPAPAAPPEEAAAEPPAAEAAPAPAAPPEEAAAEPPAAEAAPAPAAPPEEAAAEPPAAEAAPAPAAPPEEAAAEPPAAEAAPAPAAPPEEAAAEPPAAEAAPAPAAPPEEAAAEPPAAEAAPAPAAPPEEAAAEPPAAEAAPAPAAPPEEAAAEPPAAEAAPAPAAPPEEAAAEPPAAEAAPAPAAPPEEAAAEPPAAEAAPAPAAPPEEAAAEPPAAEAAPAPAAPPEEAAAEPPAAEAAPAPAAPPEEAAAEPPAAEAAPAPAAPPEEAAAEPPAAEAAPAPAAPPEEAAAEPPAAEAAPAPAAPPEEAAAEPPAAEAAPAPAAPPEEAAAEPPAAEAAPAPAAPPEEAAAEPPAAEAAPAPAAPPEEAAAEPPAAEAAPAPAAPPEEAAAEPPAAEAAPAPAAPPEEAAAEPPAAEAAPAPAAPPEEAAAEPPAAEAAPAPAAPPEEAAAEPPAAEAAPAPAAPPEEAAAEPPAAEAAPAPAAPPEEAAAEPPAAEAAPAPAAPPEEAAAEPPAAEAAPAPAAPPEEAAAEPPAAEAAPAPAAPPEEAAAEPPAAEAAPAPAAPPEEAAAEPPAAEAAPAPAAPPEEAAAEPPAAEAAPAPAAPPEEAAAEPPAAEAAPAPAAPPEEAAAEPPAAEAAPAPAAPPEEAAAEPPAAEAAPAPAAPPEEAAAEPPAAEAAPAPAAPPEEAAAEPPAAEAAPAPAAPPEEAAAEPPAAEAAPAPAAPPEEAAAEPPAAEAAPAPAAPPEEAAAEPPAAEAAPAPAAPPEEAAAEPPAAEAAPAPAAPPEEAAAEPPAAEAAPAPAAPPEEAAAEPPAAEAAPAPAAPPEEAAAEPPAAEAAP

Biological target: GLP-2R (GLP-2 receptor) on GLP-2R/Luc-CHO cells
Assay: cell-based or functional assay

| Binder | in vitro cytological activity, EC50 (luciferase reporter, GLP-2R/Luc-CHO cells) |
| --- | --- |
| B1 | 279 nM |
| B2 | 311 nM |
| B3 | 299 nM |
